Reference: publication PMC8730730

Biological target: enzymatically deglycosylated clinical-grade rshACE2 (human) (UniProt Q9BYF1)
Assay: BLI

UniProt Q9BYF1, sequence (Q9BYF1 18-740 limits assumed): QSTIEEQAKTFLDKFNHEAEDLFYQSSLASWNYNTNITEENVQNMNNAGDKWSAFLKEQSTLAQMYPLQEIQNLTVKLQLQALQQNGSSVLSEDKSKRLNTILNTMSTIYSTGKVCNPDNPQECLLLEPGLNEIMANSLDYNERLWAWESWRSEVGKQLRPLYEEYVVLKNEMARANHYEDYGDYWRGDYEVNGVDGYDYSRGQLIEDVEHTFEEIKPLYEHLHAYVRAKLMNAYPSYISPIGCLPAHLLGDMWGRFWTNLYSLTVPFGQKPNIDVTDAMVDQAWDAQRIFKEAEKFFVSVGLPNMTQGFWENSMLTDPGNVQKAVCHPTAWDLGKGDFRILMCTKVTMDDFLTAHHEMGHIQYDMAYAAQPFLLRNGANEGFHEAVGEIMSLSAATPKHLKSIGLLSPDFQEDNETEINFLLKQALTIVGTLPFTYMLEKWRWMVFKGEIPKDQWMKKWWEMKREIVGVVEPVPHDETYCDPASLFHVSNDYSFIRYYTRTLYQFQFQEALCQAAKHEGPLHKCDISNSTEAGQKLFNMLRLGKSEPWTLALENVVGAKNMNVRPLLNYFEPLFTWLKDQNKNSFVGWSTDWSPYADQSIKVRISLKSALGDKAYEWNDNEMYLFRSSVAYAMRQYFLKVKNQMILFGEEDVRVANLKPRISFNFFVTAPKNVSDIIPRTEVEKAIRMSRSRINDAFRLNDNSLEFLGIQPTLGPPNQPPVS

SARS-CoV-2 Spike receptor binding domain (residues R319-F541) (from UniProt P0DTC2 319-541) (domain or fragment)
Kd: 5.1 nM
